Laboratory results: patent publication US12156920B2, “Double-labeled probe for molecular imaging and use thereof” (Deutsches Krebsforschungszentrum, priority 2017, dated 2024)
Where two headings read alike, the source gives them in different places.

Tests used:
PSMA = molecular target: T1, PSMA (Homo sapiens, UniProt Q04609); experiment: Competitive cell binding assay on LNCaP cells (PSMA binding affinity); conditions: competition against 0.2 nM 68Ga-labeled PSMA-10
T1 construct: endogenous in cells; host or cells: LNCaP cells (ATCC CRL-1740)
Procedure: (§1) PSMA^+ LNCaP cells (ATCC CRL-1740) were cultured in RPMI medium supplemented with 10% fetal calf serum and 2 mmol/L L-glutamine (all from PAA). Cells were grown at 37° C. in humidified air with 5% CO2 and were harvested using trypsin-ethylenediaminetetraacetic acid (trypsin-EDTA; 0.25% trypsin, 0.02% EDTA, Invitrogen).
The competitive cell binding assay and internalization experiments were performed as described previously (4). Briefly, the cells (10^5 per well) were incubated with a 0.2 nM solution of ^68Ga-labeled radioligand [Glu-urea-Lys(Ahx)]2-HBED-CC (PSMA-10, precursor ordered from ABX, Radeberg, Germany) in the presence of 12 different concentrations of analyte (0-5000 nM, 100 μL/well). After incubation, the mixture was removed and the wells were washed 3 times with PBS using a multiscreen vacuum manifold (Millipore, Billerica, Mass.). Cell-bound radioactivity was measured using a gamma counter (Packard Cobra II, GMI, Minnesota, USA). The 50% inhibitory concentration (IC50) values were calculated by fitting the data using a nonlinear regression algorithm (GraphPad Software).

PSMA+ LNCaP cells = experiment: Internalization experiments (specific cell surface bound and internalized fractions); type: cell-based; conditions: 68Ga-labeled compound 30 nM, 45 min
Procedure: as §1
For internalization experiments, 10^5 cells per well were seeded in poly-L-lysine coated 24-well cell culture plates 24 h before incubation. After washing, the cells were incubated with 30 nM of the radiolabeled compound for 45 min at 37° C. and at 4° C., respectively. Cellular uptake was terminated by washing 3 times with 1 mL of ice-cold PBS. To remove surface-bound radioactivity, cells were incubated twice with 0.5 mL glycine-HCl in PBS (50 mM, pH=2.8) for 5 min. The cells were washed with 1 mL of ice-cold PBS and lysed using 0.3 N NaOH (0.5 mL). The surface-bound and the internalized fractions were measured in a gamma counter. The cell uptake was calculated as percent of the initially added radioactivity bound to 10^5 cells [% ID/10^5 cells].

[1] = Biodistribution (organ distribution) of 68Ga-labeled compounds; type: in vivo, mice; conditions: male, BALB/c nu/nu, mouse, iv, 60 pmol, total radioactivity
Procedure: (§2) The precursor peptides [1 nmol in HEPES buffer (580 mg/ml), 90 μL] were added to 40 μL [^68Ga]Ga^3+ eluate (˜40 MBq). The pH was adjusted to 3.8 using 30% NaOH and 10% NaOH, respectively. The reaction mixture was incubated at 98° C. for 10 minutes. The radiochemical yield (RCY) was determined by HPLC. For the experimental tumor models 5×10^6 cells of LNCaP (in 50% Matrigel; Becton Dickinson, Heidelberg, Germany) were subcutaneously inoculated into the right trunk of 7- to 8-week-old male BALB/c nu/nu mice (Charles River). The tumors were allowed to grow until approximately 1 cm^3 in size. The ^68Ga-labeled compounds were injected into a tail vein (1-2 MBq; 60 pmol). […] Organs of interest were dissected, blotted dry, and weighed. The radioactivity was measured using a gamma counter and calculated as % ID/g. All animal experiments complied with the current laws of the Federal Republic of Germany.

[2] = system: LNCaP-tumor bearing balb/c nu/nu mice; experiment: as above; type: in vivo
Procedure: as §2

[3] = listed as PSMA-HBED-CC-PEG2-IRDye8000CW
[4] = in vivo, Organ distribution Blood
[5] = in vivo, Organ distribution Brain
[6] = in vivo, Organ distribution Heart
[7] = in vivo, Organ distribution Intestine
[8] = in vivo, Organ distribution Kidney
[9] = in vivo, Organ distribution Liver
[10] = in vivo, Organ distribution Lung
[11] = in vivo, Organ distribution Muscle
[12] = in vivo, Organ distribution Spleen

T1 sequence (Q04609 whole entry): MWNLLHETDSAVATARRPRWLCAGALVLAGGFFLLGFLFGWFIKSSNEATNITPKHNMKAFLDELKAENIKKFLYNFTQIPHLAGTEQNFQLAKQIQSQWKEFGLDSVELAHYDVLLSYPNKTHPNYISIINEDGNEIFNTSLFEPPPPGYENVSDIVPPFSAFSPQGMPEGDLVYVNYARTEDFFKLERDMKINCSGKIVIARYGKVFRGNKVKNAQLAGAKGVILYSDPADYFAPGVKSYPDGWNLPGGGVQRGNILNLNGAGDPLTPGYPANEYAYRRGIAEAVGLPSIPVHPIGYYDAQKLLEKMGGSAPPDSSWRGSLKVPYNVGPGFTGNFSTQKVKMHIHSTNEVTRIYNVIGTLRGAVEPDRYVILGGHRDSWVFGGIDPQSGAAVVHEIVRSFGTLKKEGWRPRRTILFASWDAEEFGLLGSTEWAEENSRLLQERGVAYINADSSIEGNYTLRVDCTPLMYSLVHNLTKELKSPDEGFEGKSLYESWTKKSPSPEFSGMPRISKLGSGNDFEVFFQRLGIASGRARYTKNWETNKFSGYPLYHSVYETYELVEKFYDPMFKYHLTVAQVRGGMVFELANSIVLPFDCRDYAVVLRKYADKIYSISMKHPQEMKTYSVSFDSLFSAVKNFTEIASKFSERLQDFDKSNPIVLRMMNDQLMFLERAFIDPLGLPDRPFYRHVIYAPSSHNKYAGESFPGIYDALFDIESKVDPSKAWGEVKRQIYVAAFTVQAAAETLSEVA

**Q.** For CC1(C)C(/C=C/C2=C(Oc3ccc(S(=O)(=O)O)cc3)C(=C\C=C3/N(CCCCS(=O)(=O)O)c4ccc(S(=O)(=O)O)cc4C3(C)C)/CCC2)=[N+](CCCCCC(=O)NCCOCCOCCNC(=O)CCc2ccc(O)c(CN(CCN(CC(=O)O)Cc3cc(CCC(=O)NCCCCC(NC(=O)NC(CCC(=O)O)C(=O)O)C(=O)O)ccc3O)CC(=O)O)c2)c2ccc(S(=O)(=O)O)cc21 (stereo not shown) [PSMA-HBED-CC-PEG2-IRDye800CW, Glu-urea-Lys-HBED-CC-PEG2-IRDye800CW, reference compound], which Ki (PSMA) is on record?
**A.** 17.5 ± 4.98 nM

**Q.** And the “Specific cell surface bound” value (PSMA+ LNCaP cells)?
**A.** improved

**Q.** And the Specific internalized (PSMA+ LNCaP cells)?
**A.** improved

**Q.** And the “Specific cell surface bound” value (PSMA+ LNCaP cells; [3])?
**A.** 13.62 ± 4.79 % ID/10^5 cells

**Q.** And the Specific internalized (PSMA+ LNCaP cells; [3])?
**A.** 18.70 ± 7.03 % ID/10^5 cells

**Q.** And the tissue uptake at 1 h [1, 4]?
**A.** 3.04 %ID/g

**Q.** What about the tissue uptake at 2 h [1, 4] of the same molecule?
**A.** 0.76 %ID/g

**Q.** What about the tissue uptake at 1 h [1, 5] of the same molecule?
**A.** 0.43 %ID/g

**Q.** What about the tissue uptake at 2 h [1, 5] of the same molecule?
**A.** 0.22 %ID/g

**Q.** And the tissue uptake at 1 h [1, 6]?
**A.** 2.78 %ID/g

**Q.** And the tissue uptake at 2 h [1, 6]?
**A.** 1 %ID/g

**Q.** What about the tissue uptake at 1 h [1, 7] of the same molecule?
**A.** 2.41 %ID/g

**Q.** What about the tissue uptake at 2 h [1, 7] of the same molecule?
**A.** 1.37 %ID/g

**Q.** What about the tissue uptake at 1 h [1, 8] of the same molecule?
**A.** 205 %ID/g

**Q.** What about the tissue uptake at 2 h [1, 8] of the same molecule?
**A.** 120 %ID/g

**Q.** What about the tissue uptake at 1 h [1, 9] of the same molecule?
**A.** 2.76 %ID/g

**Q.** What about the tissue uptake at 2 h [1, 9] of the same molecule?
**A.** 1.21 %ID/g

**Q.** And the tissue uptake at 1 h [1, 10]?
**A.** 5.6 %ID/g

**Q.** What about the tissue uptake at 2 h [1, 10] of the same molecule?
**A.** 2.53 %ID/g

**Q.** What about the tissue uptake at 1 h [1, 11] of the same molecule?
**A.** 2.86 %ID/g

**Q.** What about the tissue uptake at 2 h [1, 11] of the same molecule?
**A.** 1.96 %ID/g

**Q.** What about the tissue uptake at 1 h [1, 12] of the same molecule?
**A.** 38.1 %ID/g

**Q.** And the tissue uptake at 2 h [1, 12]?
**A.** 13.7 %ID/g

**Q.** What about the tissue uptake at 2 h ([1]; in vivo, Organ distribution Tumor) of the same molecule?
**A.** 7.94 %ID/g

**Q.** And the tissue uptake at 1 h ([1]; in vivo, Organ distribution Tumor (tumor accumulation))?
**A.** 13.7 %ID/g

**Q.** What about the tissue to tissue ratio at 1 h ([1]; in vivo, Tumor-to-Organ ratio T/Blood) of the same molecule?
**A.** 4.49

**Q.** And the tissue to tissue ratio at 1 h ([1]; in vivo, Tumor-to-Organ ratio T/Brain)?
**A.** 31.4

**Q.** And the tissue to tissue ratio at 1 h ([1]; in vivo, Tumor-to-Organ ratio T/Heart)?
**A.** 4.92

**Q.** What about the tissue to tissue ratio at 1 h ([1]; in vivo, Tumor-to-Organ ratio T/Intestine) of the same molecule?
**A.** 5.66

**Q.** And the tissue to tissue ratio at 1 h ([1]; in vivo, Tumor-to-Organ ratio T/Liver)?
**A.** 4.94

**Q.** What about the tissue to tissue ratio at 1 h ([1]; in vivo, Tumor-to-Organ ratio T/Lung) of the same molecule?
**A.** 2.44

**Q.** And the tissue to tissue ratio at 1 h ([1]; in vivo, Tumor-to-Organ ratio T/Muscle)?
**A.** 4.78

**Q.** And the tissue to tissue ratio at 1 h ([1]; in vivo, Tumor-to-Organ ratio T/Spleen)?
**A.** 0.36

**Q.** What about the tissue to tissue ratio at 1 h ([1]; tumor and kidney, 68Ga labeled, 1 h p.i., read-out: Tumor-to-Organ ratio T/Kidney) of the same molecule?
**A.** 0.07

**Q.** And the “Tumor-to-Organ ratio T/Kidney” value ([2]; 68Ga labeled, 1 h p.i.)?
**A.** 0.07

**Q.** What about the “Tumor-to-Organ ratio T/Blood” value ([2]; mouse, in vivo) of the same molecule?
**A.** 4.49

**Q.** And the “Tumor-to-Organ ratio T/Brain” value ([2]; mouse, in vivo)?
**A.** 31.39

**Q.** And the “Tumor-to-Organ ratio T/Heart” value ([2]; mouse, in vivo)?
**A.** 4.92

**Q.** What about the “Tumor-to-Organ ratio T/Intestine” value ([2]; mouse, in vivo) of the same molecule?
**A.** 5.66

**Q.** And the “Tumor-to-Organ ratio T/Liver” value ([2]; mouse, in vivo)?
**A.** 4.94

**Q.** And the “Tumor-to-Organ ratio T/Lung” value ([2]; mouse, in vivo)?
**A.** 2.44

**Q.** And the “Tumor-to-Organ ratio T/Muscle” value ([2]; mouse, in vivo)?
**A.** 4.78

**Q.** What about the “Tumor-to-Organ ratio T/Spleen” value ([2]; mouse, in vivo) of the same molecule?
**A.** 0.36
